Reference: article PMC5960625 (Biochemical pharmacology, 2018)

T1: constitutive androstane receptor (hCAR1) (Homo sapiens, UniProt Q14994)
T1 sequence (Q14994 109-352 limits assumed): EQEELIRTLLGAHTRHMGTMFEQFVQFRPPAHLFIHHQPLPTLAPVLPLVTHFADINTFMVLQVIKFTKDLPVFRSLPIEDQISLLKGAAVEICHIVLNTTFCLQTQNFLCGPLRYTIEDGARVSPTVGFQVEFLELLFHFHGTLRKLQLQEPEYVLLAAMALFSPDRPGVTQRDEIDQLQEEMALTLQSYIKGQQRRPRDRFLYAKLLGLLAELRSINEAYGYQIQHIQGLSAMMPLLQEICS

T2: human CAR ligand-binding domain (hCAR1-LBD), purified (human)
T2 chain: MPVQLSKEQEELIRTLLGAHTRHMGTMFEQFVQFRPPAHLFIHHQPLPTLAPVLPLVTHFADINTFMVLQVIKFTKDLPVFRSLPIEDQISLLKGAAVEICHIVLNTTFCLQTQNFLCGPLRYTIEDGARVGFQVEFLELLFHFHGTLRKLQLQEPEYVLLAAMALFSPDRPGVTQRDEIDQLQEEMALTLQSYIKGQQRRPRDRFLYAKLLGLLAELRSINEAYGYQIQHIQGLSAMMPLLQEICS


Tests used:
[1] = target: T1, constitutive androstane receptor (hCAR1); test: SPR; assay type: binding
[2] = target: GAL4DBD-NCoR fusion (nuclear receptor co-repressor); test: two-hybrid
[3] = target: GAL4DBD-SMRT fusion (silencing mediator for retinoid or thyroid hormone receptors); test: two-hybrid
[4] = target: T2, human CAR ligand-binding domain …; test: HDX-MS

Molecule | Kd [1] [µM] | loss of interaction [2] [%] | loss of interaction [3] [%] | binding result [4]
CCOC(=O)Nc1ccc2c(c1)N(C(=O)CN(CC)CC)c1ccccc1CC2 [CINPA1] | ~548 | – | – | –
VP16AD-hCAR1 F217A (full length) (receptor) | – | 75 | 50 | –
VP16AD-hCAR1 Y224A (full length) (receptor) | – | 75 | 50 | –
ASNLGLEDIIRKALMGSFD [NCoR1-3 cofactor peptide] | – | – | – | binds
